According to patent US20210061907A1:

Key:
[1] = molecular target: CD19-ECD Fc fusion protein (human) (UniProt P15391); assay: ELISA, plates coated with CD19-ECD Fc, dose series of purified kappa fusion antibody fragment, OD450, GraphPad Prism
[2] = molecular target: CD19 on the CD19-positive RaJi cell line (UniProt P15391); assay: flow cytometry on the CD19-positive RaJi cell line, dose series, anti-human IgG-FITC, GraphPad Prism

Row | Binder | EC50 [1] | EC50 [2]
1 | 2F1 affinity-matured antibody fragment, kappa light chain fusion protein (scFv, V domains shown) VH: EVQLLESGGGLVQPGGSLRLSCAASGFTFSDYYMSWVRQAPGKGLEWVSGIYYDGSSQGWSSSVKGRFTISRDNSKNTLYLQMNSLRAEDTAVYYCAKGPLFCNDRTCSYYYAMDVWGQGTLVTVSS VL: QSVLTQPPSASGTPGQRVTISCYGQPSNIGSNAVYWYQQLPGTAPKLLIYDDNHRPSGVPDRFSGSKSGTSASLAISGLRSEDEADYYCGTWDYSLSGYVLGGGTKLTVL | 1.6 nM | 10.5 nM
2 | D10 affinity-matured antibody fragment, kappa light chain fusion protein (scFv, V domains shown) VH: EVQLLESGGGLVQPGGSLRLSCAASGFTFSDYYMSWVRQAPGKGLEWVSGIYYDGSAVYYADSVKGRFTISRDNSKNTLYLQMNSLRAEDTAVYYCAKGPLFCNDRTCSYYYAMDVWGQGTLVTVSS VL: QSVLTQPPSASGTPGQRVTISCWGDYSNIGSNAVYWYQQLPGTAPKLLIYDDNHRPSGVPDRFSGSKSGTSASLAISGLRSEDEADYYCGTWDYSLSGYVLGGGTKLTVL | 2.48 nM | –
3 | E3 affinity-matured antibody fragment, kappa light chain fusion protein (scFv, V domains shown) VH: EVQLLESGGGLVQPGGSLRLSCAASGFTFSDYYMSWVRQAPGKGLEWVSGIYYDGTAMYYADSVKGRFTISRDNSKNTLYLQMNSLRAEDTAVYYCAKGPLFCNDRTCSYYYAMDVWGQGTLVTVSS VL: QSVLTQPPSASGTPGQRVTISCSGGYSNIGSNAVYWYQQLPGTAPKLLIYDDNHRPSGVPDRFSGSKSGTSASLAISGLRSEDEADYYCGTWDYSLSGYVLGGGTKLTVL | 1.87 nM | 26.1 nM
4 | T3C1 affinity-matured antibody fragment, kappa light chain fusion protein (scFv, V domains shown) VH: EVQLLESGGGLVQPGGSLRLSCAASGFTFSDYYMSWVRQAPGKGLEWVSGIYYDGSASYYADSVKGRFTISRDNSKNTLYLQMNSLRAEDTAVYYCAKGPLFCNDRTCSYYYAMDVWGQGTLVTVSS VL: QSVLTQPPSASGTPGQRVTISCSGGPSNIGSNAVYWYQQLPGTAPKLLIYDDNHRPSGVPDRFSGSKSGTSASLAISGLRSEDEADYYCGTWDYSLSGYVLGGGTKLTVL | 2.4 nM | –

Other lines, results leading:

Row | EC50 [1] | EC50 [2] | Binder
5 | 3.31 nM | – | H10 affinity-matured antibody fragment, kappa light chain fusion protein (scFv, V domains shown) VH: EVQLLESGGGLVQPGGSLRLSCAASGFTFSDYYMSWVRQAPGKGLEWVSGIYYDGTNVYYADSVKGRFTISRDNSKNTLYLQMNSLRAEDTAVYYCAKGPLFCNDRTCSYYYAMDVWGQGTLVTVSS VL: QSVLTQPPSASGTPGQRVTISCLGGYSNIGSNAVYWYQQLPGTAPKLLIYDDNHRPSGVPDRFSGSKSGTSASLAISGLRSEDEADYYCGTWDYSLSGYVLGGGTKLTVL
6 | 2.32 nM | – | T3H9 affinity-matured antibody fragment, kappa light chain fusion protein (scFv, V domains shown) VH: EVQLLESGGGLVQPGGSLRLSCAASGFTFSDYYMSWVRQAPGKGLEWVSGIYYDASAEYYADSVKGRFTISRDNSKNTLYLQMNSLRAEDTAVYYCAKGPLFCNDRTCSYYYAMDVWGQGTLVTVSS VL: QSVLTQPPSASGTPGQRVTISCSGMLSNIGSNAVYWYQQLPGTAPKLLIYDDNHRPSGVPDRFSGSKSGTSASLAISGLRSEDEADYYCGTWDYSLSGYVLGGGTKLTVL
7 | 3.2 nM | – | D7 affinity-matured antibody fragment, kappa light chain fusion protein (scFv, V domains shown) VH: EVQLLESGGGLVQPGGSLRLSCAASGFTFSDYYMSWVRQAPGKGLEWVSGIYYDGTAFYYADSVKGRFTISRDNSKNTLYLQMNSLRAEDTAVYYCAKGPLFCNDRTCSYYYAMDVWGQGTLVTVSS VL: QSVLTQPPSASGTPGQRVTISCEGQPSNIGSNAVYWYQQLPGTAPKLLIYDDNHRPSGVPDRFSGSKSGTSASLAISGLRSEDEADYYCGTWDYSLSGYVLGGGTKLTVL
8 | 5.81 nM | 61.2 nM | C2 affinity-matured antibody fragment, kappa light chain fusion protein (scFv, V domains shown) VH: EVQLLESGGGLVQPGGSLRLSCAASGFTFSDYYMSWVRQAPGKGLEWVSGIYYDGTNQYYADSVKGRFTISRDNSKNTLYLQMNSLRAEDTAVYYCAKGPLFCNDRTCSYYYAMDVWGQGTLVTVSS VL: QSVLTQPPSASGTPGQRVTISCTGGLSNIGSNAVYWYQQLPGTAPKLLIYDDNHRPSGVPDRFSGSKSGTSASLAISGLRSEDEADYYCGTWDYSLSGYVLGGGTKLTVL
9 | 2.56 nM | – | E12 affinity-matured antibody fragment, kappa light chain fusion protein (scFv, V domains shown) VH: EVQLLESGGGLVQPGGSLRLSCAASGFTFSDYYMSWVRQAPGKGLEWVSGIYYDSFVPYYADSVKGRFTISRDNSKNTLYLQMNSLRAEDTAVYYCAKGPLFCNDRTCSYYYAMDVWGQGTLVTVSS VL: QSVLTQPPSASGTPGQRVTISCAGSASNIGSNAVYWYQQLPGTAPKLLIYDDNHRPSGVPDRFSGSKSGTSASLAISGLRSEDEADYYCGTWDYSLSGYVLGGGTKLTVL
